Reference: publication PMC11739650 (Communications Biology, 2025)
Several values for one entry are separate records, joined by “and”; a condition that tells them apart may be missing. Equal values may be shown once.

What was measured:
cryo-EM structure = biological target: the molecule itself; experiment: cryo-EM structure
[1] = biological target: the molecule itself; experiment: negative-stain electron microscopy

Protein	stoichiometry N (cryo-EM structure)	binding result [1]
FliF (flagellar MS-ring protein), wild type (natural protein, Salmonella enterica serovar Typhimurium, UniProt P15928 1-560, looked up) MSATASTATQPKPLEWLNRLRANPRIPLIVAGSAAVAIVVAMVLWAKTPDYRTLFSNLSDQDGGAIVAQLTQMNIPYRFANGSGAIEVPADKVHELRLRLAQQGLPKGGAVGFELLDQEKFGISQFSEQVNYQRALEGELARTIETLGPVKSARVHLAMPKPSLFVREQKSPSASVTVTLEPGRALDEGQISAVVHLVSSAVAGLPPGNVTLVDQSGHLLTQSNTSGRDLNDAQLKFANDVESRIQRRIEAILSPIVGNGNVHAQVTAQLDFANKEQTEEHYSPNGDASKATLRSRQLNISEQVGAGYPGGVPGALSNQPAPPNEAPIATPPTNQQNAQNTPQTSTSTNSNSAGPRSTQRNETSNYEVDRTIRHTKMNVGDIERLSVAVVVNYKTLADGKPLPLTADQMKQIEDLTREAMGFSDKRGDTLNVVNSPFSAVDNTGGELPFWQQQSFIDQLLAAGRWLLVLVVAWILWRKAVRPQLTRRVEEAKAAQEQAQVRQETEEAVEVRLSKDEQLQQRRANQRLGAEVMSQRIREMSDNDPRVVALVIRQWMSNDHE	33 and 34	
FliF(G217W) (natural protein, Salmonella enterica serovar Typhimurium) MSATASTATQPKPLEWLNRLRANPRIPLIVAGSAAVAIVVAMVLWAKTPDYRTLFSNLSDQDGGAIVAQLTQMNIPYRFANGSGAIEVPADKVHELRLRLAQQGLPKGGAVGFELLDQEKFGISQFSEQVNYQRALEGELARTIETLGPVKSARVHLAMPKPSLFVREQKSPSASVTVTLEPGRALDEGQISAVVHLVSSAVAGLPPGNVTLVDQSWHLLTQSNTSGRDLNDAQLKFANDVESRIQRRIEAILSPIVGNGNVHAQVTAQLDFANKEQTEEHYSPNGDASKATLRSRQLNISEQVGAGYPGGVPGALSNQPAPPNEAPIATPPTNQQNAQNTPQTSTSTNSNSAGPRSTQRNETSNYEVDRTIRHTKMNVGDIERLSVAVVVNYKTLADGKPLPLTADQMKQIEDLTREAMGFSDKRGDTLNVVNSPFSAVDNTGGELPFWQQQSFIDQLLAAGRWLLVLVVAWILWRKAVRPQLTRRVEEAKAAQEQAQVRQETEEAVEVRLSKDEQLQQRRANQRLGAEVMSQRIREMSDNDPRVVALVIRQWMSNDHE		binds
FliF(G217A) (natural protein, Salmonella enterica serovar Typhimurium) MSATASTATQPKPLEWLNRLRANPRIPLIVAGSAAVAIVVAMVLWAKTPDYRTLFSNLSDQDGGAIVAQLTQMNIPYRFANGSGAIEVPADKVHELRLRLAQQGLPKGGAVGFELLDQEKFGISQFSEQVNYQRALEGELARTIETLGPVKSARVHLAMPKPSLFVREQKSPSASVTVTLEPGRALDEGQISAVVHLVSSAVAGLPPGNVTLVDQSAHLLTQSNTSGRDLNDAQLKFANDVESRIQRRIEAILSPIVGNGNVHAQVTAQLDFANKEQTEEHYSPNGDASKATLRSRQLNISEQVGAGYPGGVPGALSNQPAPPNEAPIATPPTNQQNAQNTPQTSTSTNSNSAGPRSTQRNETSNYEVDRTIRHTKMNVGDIERLSVAVVVNYKTLADGKPLPLTADQMKQIEDLTREAMGFSDKRGDTLNVVNSPFSAVDNTGGELPFWQQQSFIDQLLAAGRWLLVLVVAWILWRKAVRPQLTRRVEEAKAAQEQAQVRQETEEAVEVRLSKDEQLQQRRANQRLGAEVMSQRIREMSDNDPRVVALVIRQWMSNDHE		binds
FliF(G217P) (natural protein, Salmonella enterica serovar Typhimurium) MSATASTATQPKPLEWLNRLRANPRIPLIVAGSAAVAIVVAMVLWAKTPDYRTLFSNLSDQDGGAIVAQLTQMNIPYRFANGSGAIEVPADKVHELRLRLAQQGLPKGGAVGFELLDQEKFGISQFSEQVNYQRALEGELARTIETLGPVKSARVHLAMPKPSLFVREQKSPSASVTVTLEPGRALDEGQISAVVHLVSSAVAGLPPGNVTLVDQSPHLLTQSNTSGRDLNDAQLKFANDVESRIQRRIEAILSPIVGNGNVHAQVTAQLDFANKEQTEEHYSPNGDASKATLRSRQLNISEQVGAGYPGGVPGALSNQPAPPNEAPIATPPTNQQNAQNTPQTSTSTNSNSAGPRSTQRNETSNYEVDRTIRHTKMNVGDIERLSVAVVVNYKTLADGKPLPLTADQMKQIEDLTREAMGFSDKRGDTLNVVNSPFSAVDNTGGELPFWQQQSFIDQLLAAGRWLLVLVVAWILWRKAVRPQLTRRVEEAKAAQEQAQVRQETEEAVEVRLSKDEQLQQRRANQRLGAEVMSQRIREMSDNDPRVVALVIRQWMSNDHE		binds
FliF(∆214–220) (natural protein, Salmonella enterica serovar Typhimurium) MSATASTATQPKPLEWLNRLRANPRIPLIVAGSAAVAIVVAMVLWAKTPDYRTLFSNLSDQDGGAIVAQLTQMNIPYRFANGSGAIEVPADKVHELRLRLAQQGLPKGGAVGFELLDQEKFGISQFSEQVNYQRALEGELARTIETLGPVKSARVHLAMPKPSLFVREQKSPSASVTVTLEPGRALDEGQISAVVHLVSSAVAGLPPGNVTLVTQSNTSGRDLNDAQLKFANDVESRIQRRIEAILSPIVGNGNVHAQVTAQLDFANKEQTEEHYSPNGDASKATLRSRQLNISEQVGAGYPGGVPGALSNQPAPPNEAPIATPPTNQQNAQNTPQTSTSTNSNSAGPRSTQRNETSNYEVDRTIRHTKMNVGDIERLSVAVVVNYKTLADGKPLPLTADQMKQIEDLTREAMGFSDKRGDTLNVVNSPFSAVDNTGGELPFWQQQSFIDQLLAAGRWLLVLVVAWILWRKAVRPQLTRRVEEAKAAQEQAQVRQETEEAVEVRLSKDEQLQQRRANQRLGAEVMSQRIREMSDNDPRVVALVIRQWMSNDHE		binds
FliF(∆221–227) (natural protein, Salmonella enterica serovar Typhimurium) MSATASTATQPKPLEWLNRLRANPRIPLIVAGSAAVAIVVAMVLWAKTPDYRTLFSNLSDQDGGAIVAQLTQMNIPYRFANGSGAIEVPADKVHELRLRLAQQGLPKGGAVGFELLDQEKFGISQFSEQVNYQRALEGELARTIETLGPVKSARVHLAMPKPSLFVREQKSPSASVTVTLEPGRALDEGQISAVVHLVSSAVAGLPPGNVTLVDQSGHLLRDLNDAQLKFANDVESRIQRRIEAILSPIVGNGNVHAQVTAQLDFANKEQTEEHYSPNGDASKATLRSRQLNISEQVGAGYPGGVPGALSNQPAPPNEAPIATPPTNQQNAQNTPQTSTSTNSNSAGPRSTQRNETSNYEVDRTIRHTKMNVGDIERLSVAVVVNYKTLADGKPLPLTADQMKQIEDLTREAMGFSDKRGDTLNVVNSPFSAVDNTGGELPFWQQQSFIDQLLAAGRWLLVLVVAWILWRKAVRPQLTRRVEEAKAAQEQAQVRQETEEAVEVRLSKDEQLQQRRANQRLGAEVMSQRIREMSDNDPRVVALVIRQWMSNDHE		binds
FliF(∆165–167) (natural protein, Salmonella enterica serovar Typhimurium) MSATASTATQPKPLEWLNRLRANPRIPLIVAGSAAVAIVVAMVLWAKTPDYRTLFSNLSDQDGGAIVAQLTQMNIPYRFANGSGAIEVPADKVHELRLRLAQQGLPKGGAVGFELLDQEKFGISQFSEQVNYQRALEGELARTIETLGPVKSARVHLAMPKPSLEQKSPSASVTVTLEPGRALDEGQISAVVHLVSSAVAGLPPGNVTLVDQSGHLLTQSNTSGRDLNDAQLKFANDVESRIQRRIEAILSPIVGNGNVHAQVTAQLDFANKEQTEEHYSPNGDASKATLRSRQLNISEQVGAGYPGGVPGALSNQPAPPNEAPIATPPTNQQNAQNTPQTSTSTNSNSAGPRSTQRNETSNYEVDRTIRHTKMNVGDIERLSVAVVVNYKTLADGKPLPLTADQMKQIEDLTREAMGFSDKRGDTLNVVNSPFSAVDNTGGELPFWQQQSFIDQLLAAGRWLLVLVVAWILWRKAVRPQLTRRVEEAKAAQEQAQVRQETEEAVEVRLSKDEQLQQRRANQRLGAEVMSQRIREMSDNDPRVVALVIRQWMSNDHE		binds
